Laboratory results as given in US20260015426A1 (23ANDME, published 2026).

T1: hu-M-IL1RAP-D1D2 construct, positions S21-P237 (human)
T1 chain: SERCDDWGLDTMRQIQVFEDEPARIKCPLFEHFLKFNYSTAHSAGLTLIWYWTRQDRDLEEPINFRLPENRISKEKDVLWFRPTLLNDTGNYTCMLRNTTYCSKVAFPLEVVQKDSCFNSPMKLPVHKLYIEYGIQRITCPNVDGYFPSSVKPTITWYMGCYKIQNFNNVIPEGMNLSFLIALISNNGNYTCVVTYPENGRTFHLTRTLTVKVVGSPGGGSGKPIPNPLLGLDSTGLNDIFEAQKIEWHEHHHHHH

T2: hu-M-IL1RAP construct, positions S21-T367 (extracellular domain of the membrane form of human IL1RAP) (human, UniProt Q9NPH3 21-367)
T2 construct: Biotinylated when captured on the Biacore chip
T2 sequence: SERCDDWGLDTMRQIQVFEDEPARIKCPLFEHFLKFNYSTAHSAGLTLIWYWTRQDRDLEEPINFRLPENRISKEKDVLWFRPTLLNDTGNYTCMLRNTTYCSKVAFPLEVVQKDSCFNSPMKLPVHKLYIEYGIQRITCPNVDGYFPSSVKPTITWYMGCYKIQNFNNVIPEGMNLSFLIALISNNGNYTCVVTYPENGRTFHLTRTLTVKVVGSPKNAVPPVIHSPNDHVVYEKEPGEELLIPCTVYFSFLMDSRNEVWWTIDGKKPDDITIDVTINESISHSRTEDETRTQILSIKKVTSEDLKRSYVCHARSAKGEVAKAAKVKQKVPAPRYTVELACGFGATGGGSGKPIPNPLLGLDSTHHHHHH

T3: human IL1RAP (hu-IL1RAP) on human cells (human, UniProt Q9NPH3 21-570)
T3 sequence: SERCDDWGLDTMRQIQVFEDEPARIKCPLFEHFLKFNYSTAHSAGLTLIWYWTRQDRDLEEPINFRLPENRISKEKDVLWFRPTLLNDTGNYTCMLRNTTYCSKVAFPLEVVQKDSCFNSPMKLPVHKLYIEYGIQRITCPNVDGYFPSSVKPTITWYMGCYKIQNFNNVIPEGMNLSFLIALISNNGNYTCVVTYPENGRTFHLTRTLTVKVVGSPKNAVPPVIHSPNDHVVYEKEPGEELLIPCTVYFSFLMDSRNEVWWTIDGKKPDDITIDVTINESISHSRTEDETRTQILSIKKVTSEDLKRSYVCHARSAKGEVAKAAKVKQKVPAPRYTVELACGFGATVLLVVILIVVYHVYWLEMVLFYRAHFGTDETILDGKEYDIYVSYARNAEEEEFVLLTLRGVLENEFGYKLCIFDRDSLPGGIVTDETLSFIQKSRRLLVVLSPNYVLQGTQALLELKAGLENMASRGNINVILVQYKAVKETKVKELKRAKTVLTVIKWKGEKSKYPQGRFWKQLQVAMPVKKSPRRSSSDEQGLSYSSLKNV

T4: cyno-M-IL1RAP construct, positions S21-T367 (cynomolgus monkey, UniProt P59822 21-367 (rhesus entry))
T4 construct: Biotinylated when captured on the Biacore chip; also called cy-M-IL1RAP
T4 sequence: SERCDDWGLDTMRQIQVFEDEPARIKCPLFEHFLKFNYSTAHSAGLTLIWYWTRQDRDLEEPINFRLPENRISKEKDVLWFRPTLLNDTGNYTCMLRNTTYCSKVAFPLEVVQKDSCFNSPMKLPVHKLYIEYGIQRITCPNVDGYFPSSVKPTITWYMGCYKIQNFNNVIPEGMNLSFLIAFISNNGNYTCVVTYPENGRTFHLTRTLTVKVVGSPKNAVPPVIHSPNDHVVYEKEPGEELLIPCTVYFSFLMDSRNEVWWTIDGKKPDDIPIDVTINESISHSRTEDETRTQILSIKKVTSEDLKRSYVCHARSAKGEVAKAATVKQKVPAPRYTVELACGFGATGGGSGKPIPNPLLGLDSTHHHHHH

T5: mu-M-IL1RAP construct, positions S21-T367 (mouse, UniProt Q61730 21-367)
T5 construct: also called mo-M-IL1RAP; mouse-M-IL1RAP
T5 sequence: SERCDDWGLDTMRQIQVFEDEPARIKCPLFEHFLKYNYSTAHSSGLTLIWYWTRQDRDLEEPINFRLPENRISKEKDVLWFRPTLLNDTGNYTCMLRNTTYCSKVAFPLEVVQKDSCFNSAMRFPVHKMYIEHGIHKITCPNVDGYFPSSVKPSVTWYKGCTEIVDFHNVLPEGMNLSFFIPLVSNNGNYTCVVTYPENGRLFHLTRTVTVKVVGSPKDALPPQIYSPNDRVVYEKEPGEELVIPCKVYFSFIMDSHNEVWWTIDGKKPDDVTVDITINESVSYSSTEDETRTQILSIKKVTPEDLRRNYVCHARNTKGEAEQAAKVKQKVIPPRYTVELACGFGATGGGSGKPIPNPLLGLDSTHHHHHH

T6: hu-S-IL1RAP construct, positions S21-Q356 (soluble human IL1RAP) (human, UniProt Q9NPH3 21-350)
T6 sequence: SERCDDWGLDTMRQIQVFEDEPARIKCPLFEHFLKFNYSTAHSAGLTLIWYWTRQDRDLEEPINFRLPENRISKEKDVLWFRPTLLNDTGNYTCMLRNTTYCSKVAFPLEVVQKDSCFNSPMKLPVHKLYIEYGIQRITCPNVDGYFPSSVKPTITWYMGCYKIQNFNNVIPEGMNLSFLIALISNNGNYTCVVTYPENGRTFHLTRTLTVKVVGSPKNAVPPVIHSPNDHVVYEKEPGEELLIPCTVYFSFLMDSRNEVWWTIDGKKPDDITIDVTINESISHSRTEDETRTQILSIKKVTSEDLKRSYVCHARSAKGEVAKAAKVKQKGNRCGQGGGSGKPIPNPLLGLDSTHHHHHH


How the values were obtained:
[1] = molecular target: T1, hu-M-IL1RAP-D1D2 construct, positions …; assay: ELISA, mAb at 10 nM
Experimental: (§1) After removing the coating solution, unspecific binding was blocked by adding 200 μL of assay/blocking solution containing 1% bovine serum albumin (BSA) in phosphate buffered saline (PBS) pH 7.4 (ELISA diluent) and incubation at room temperature for one hour with agitation or overnight at 4° C. without agitation. Plates were then washed three times with 300 μL of PBS, 0.05% TWEEN®-20 (wash buffer). 100 μL of culture supernatant from individual hybridoma clones (or purified antibodies at the indicated concentration) was added to individual wells followed by incubation at room temperature for one hour with agitation. […] The plate was incubated at room temperature for one hour with agitation, washed six times with wash buffer and developed for 3-10 minutes by adding 50 μL/well of tetramethylbenzidine (TMB) microwell peroxidase substrate (Scytek Laboratories, Inc., Logan, UT, USA; catalogue number TM1999).
(§2) Binding domain mapping: Binding domain mapping of the 15 purified antibodies was carried out using the above-described ELISA assay with the following IL1RAP polypeptide constructs coated at 1 μg/ml on the assay plates: hu-M-IL1RAP, hu-M-IL1RAP-D1, hu-M-IL1RAP-D1D2, and hu-M-IL1RAP-D3.

[2] = molecular target: T2, hu-M-IL1RAP construct, positions …; assay: ELISA, mAb at 10 nM
Experimental: as §1, §2

[3] = molecular target: T3, human IL1RAP (hu-IL1RAP) on human cells; assay: cell-based or functional assay
[4] = molecular target: T2, hu-M-IL1RAP construct, positions …; assay: ELISA, hybridoma supernatant
Experimental: as §1

[5] = molecular target: T4, cyno-M-IL1RAP construct, positions …; assay: ELISA, purified mAb
Experimental: as §1

[6] = molecular target: T2, hu-M-IL1RAP construct, positions …; assay: ELISA, purified mAb
Experimental: as §1

[7] = molecular target: T5, mu-M-IL1RAP construct, positions …; assay: ELISA, purified mAb
Experimental: as §1

[8] = molecular target: T6, hu-S-IL1RAP construct, positions …; assay: ELISA, purified mAb
Experimental: as §1

[9] = molecular target: T3, human IL1RAP (hu-IL1RAP) on human cells; assay: cell-based or functional assay; remark: listed apart in the source
[10] = molecular target: T2, hu-M-IL1RAP construct, positions …; assay: SPR, Fab analyte, 37 C
Experimental: (§3) Surface plasmon resonance (SPR) analysis was used to determine binding affinity for hu-M-IL1RAP of the purified Fabs containing the selected single, double, and triple mutations in either the VL or VH regions using a BIACORE™ 8K instrument. […] For kinetics measurements, 5 nM biotinylated hu-M-IL1RAP was captured at 10 μL/min to achieve ˜50 response units in the second flow cell (FC2). FC1 was kept as a reference. […] The sensorgrams were recorded and subjected to reference and buffer subtraction before data analysis with the BIACORE® 8K Evaluation Software (version 1.1.1.7442). Association rates (kₒₙ) and dissociation rates (koff) were calculated using a simple one-to-one Langmuir binding model. The equilibrium dissociation constant (KD) was calculated as the ratio of koff/kₒₙ.

[11] = molecular target: T2, hu-M-IL1RAP construct, positions …; assay: SPR, Fab analyte
Experimental: as §3

[12] = molecular target: T3, human IL1RAP (hu-IL1RAP) on human cells; assay: cell-based or functional assay; remark: listed apart in the source
[13] = molecular target: T2, hu-M-IL1RAP construct, positions …; assay: SPR, Fab analyte, 25 C
Experimental: as §3

Row | A450 [1] | A450 [2] | HEK-Blue SEAP, IL-1β, % inhibition (supernatant) [3] | HEK-Blue SEAP, IL-33, % inhibition (supernatant) [3] | A450 [4] | EC50 [5] | EC50 [6] | EC50 [8] | HEK-Blue, IL-1β, % inhibition at 100 nM [9] | HEK-Blue, IL-33, % inhibition at 100 nM [9] | Binder | binding result [7] | other results
1 | 0.602 A450 | 1.09 A450 | 45% | 26% | 0.987 A450 | 257 pM | 262 pM | 186 pM | 64% | 27% | 8H1 (purified mAb from hybridoma 8H1) (antibody, V domains shown, Mouse hybridoma mAb) VH: QVQLQQSGPELVKSGASVRISCKASGYAFSGSWMNWVKQRPGKGLEWIGRIYPGDGNTNYNGKFKDKATLTADKSSSTAFMQLSSLTSEDSAVYFCARDYYLFYFDYWGQGTTLTVSS VL: NIVMTQTPKFLPVAAEDRVIITCKASQDVSNEVAWYQQKPGQSPKLLMYYASNRYTGVPDRFTGSGSGTDFTFTISSVQVEDLAVYFCQQHYSSPLTFGAGTKLELK | no binding (tested: 20 nM (highest tested)) | –
2 | – | – | – | – | – | – | – | – | – | – | K13 Fab (VL A51Y/W92I) (Fab, V domains shown, Fab with 8xHis tag) VH: EVQLVESGGGLVQPGGSLRLSCAASGFTFSNYAMSWVRQAPGKGLEWVATVTEGGDYNYYLDDVKGRFTISRDNAKNSLYLQMNSLRAEDTAVYYCARDRWPYFFDYWGQGTLVTVSS VL: DIQMTQSPSSLSASVGDRVTITCRASENIYSNLAWYQQKPGKSPKLLVYGYKNLADGVPSRFSGSGSGTDYTLTISSLQPEDFATYYCQHFITTPRTFGGGTKVEIK | – | Kd [10]: 29.3 pM; koff [10]: 0.000117 s⁻¹; kon [10]: 4.01e+06 M⁻¹ s⁻¹; fold improvement of affinity over the parental Fab [11]: 9 fold; HEK-Blue, IL-1β, % inhibition at 100 nM (Fab) [12]: 100%; HEK-Blue, IL-1β, IC50 (Fab) [12]: 940 pM; HEK-Blue, IL-33, % inhibition at 100 nM (Fab) [12]: 98%; HEK-Blue, IL-33, IC50 (Fab) [12]: 3170 pM; HEK-Blue, IL-36α, % inhibition at 100 nM (Fab) [12]: 100%; HEK-Blue, IL-36α, IC50 (Fab) [12]: 884 pM; Kd [13]: 7.09 pM; koff [13]: 4.36e-05 s⁻¹; kon [13]: 6.15e+06 M⁻¹ s⁻¹
3 | 0.957 A450 | 1.14 A450 | 40% | 18% | 1.05 A450 | 43 pM | 39 pM | 36 pM | 86% | 46% | 9D5 (purified mAb from hybridoma 9D5) (antibody, V domains shown, Mouse hybridoma mAb) VH: QVQLQQSGAELARPGASVKFSCKASGYTFTSYWMQWVKQRPGQGLEWIGTIYPGDGNTRYTQKFKGKATLTADKSSSTAYMQLSGLASEDSAVYYCARGYFGNLVFDVWGAGTTVTVSS VL: DIKMTQSPSSMYASLGERVTITCKASQDINTYLSWFLQKPGKSPKTLIYRADRLVDGVPSRFSGGGSGQDYSLTISSLEYEDLGIYYCLQYDEFPYTFGSGTKLEIK | no binding (tested: 20 nM (highest tested)) | –
